In this assay the target is soluble ectodomain protein of human CD26 (hCD26) (human), P27487. Description: crystal structure. Conditions: remark: other sources report otherwise.

B1: soluble ectodomain protein of human CD26 (hCD26), P27487 29-766 (receptor)
chain: NKGTDDATADSRKTYTLTDYLKNTYRLKLYSLRWISDHEYLYKQENNILVFNAEYGNSSVFLENSTFDEFGHSINDYSISPDGQFILLEYNYVKQWRHSYTASYDIYDLNKRQLITEERIPNNTQWVTWSPVGHKLAYVWNNDIYVKIEPNLPSYRITWTGKEDIIYNGITDWVYEEEVFSAYSALWWSPNGTFLAYAQFNDTEVPLIEYSFYSDESLQYPKTVRVPYPKAGAVNPTVKFFVVNTDSLSSVTNATSIQITAPASMLIGDHYLCDVTWATQERISLQWLRRIQNYSVMDICDYDESSGRWNCLVARQHIEMSTTGWVGRFRPSEPHFTLDGNSFYKIISNEEGYRHICYFQIDKKDCTFITKGTWEVIGIEALTSDYLYYISNEYKGMPGGRNLYKIQLSDYTKVTCLSCELNPERCQYYSVSFSKEAKYYQLRCSGPGLPLYTLHSSVNDKGLRVLEDNSALDKMLQNVQMPSKKLDFIILNETKFWYQMILPPHFDKSKKYPLLLDVYAGPCSQKADTVFRLNWATYLASTENIIVASFDGRGSGYQGDKIMHAINRRLGTFEVEDQIEAARQFSKMGFVDNKRIAIWGWSYGGYVTSMVLGSGSGVFKCGIAVAPVSRWEYYDSVYTERYMGLPTPEDNLDHYRNSTVMSRAENFKQVEYLLIHGTADDNVHFQQSAQISKALVDVGVDFQAMWYTDEDHGIASSTAHQHIYTHMSHFIKQCFSLP
What is called stoichiometry N is the number of molecules, sites or subunits per partner or assembly. As for B1, the stoichiometry N was determined as 2.

The values are drawn from article PMC7104937.
